Measurements published in PMC9356269, “A purified energy-converting hydrogenase from Thermoanaerobacter kivui demonstrates coupled H^+-translocation and reduction in vitro” (The Journal of Biological Chemistry, 2022).

Tests used:
[1] = target: Ech2 complex (energy-converting hydrogenase 2) of T. kivui, His-tagged on Ech2C (Thermoanaerobacter kivui); assay: native gel or EMSA; purified Ech2 on nondenaturing PAGE with size standards, Coomassie stain and in-gel hydrogenase activity assay; bands of about 230, 450 and 520 kDa, only the 450 and 520 kDa bands active
[2] = target: T1, Ech2 complex (energy-converting hydrogenase Ech2) (Thermoanaerobacter kivui, UniProt A0A097ATF1+A0A097ATH3+A0A097ATI1); assay: Fd2-:H+ oxidoreductase activity, H2 by gas chromatography; assay type: biochemical; conditions: read-out: 50% inhibition
T1 construct: gene ech2A1; eight-subunit complex from T. kivui membranes (DDM), plasmid-encoded Ech2C with C-terminal 10x His tag, other subunits native; predicted monomer 248 kDa, active bands ~450 and ~520 kDa (dimer); with Energy-converting hydrogenase Ech2 subunit Ech2C; Energy-converting hydrogenase Ech2 subunit Ech2D; Energy-converting hydrogenase Ech2 subunit Ech2E; Energy-converting hydrogenase Ech2 subunit Ech2F; HycB2 (4Fe-4S ferredoxin-type subunit)

[3] = target: Ech2 complex (energy-converting hydrogenase 2) of T. kivui, His-tagged on Ech2C (Thermoanaerobacter kivui)

Q: With “Ech2 complex (energy-converting hydrogenase 2) of T. kivui, His-tagged on Ech2C, A0A097ATI1 1-625; A0A097ATF1 1-380; A0A097ATH3 1-311; A0A097ATJ2 1-141; A0A097ATJ6 1-120; A0A097ATH9 1-364; A0A097ATH4 1-156; A0A097ATH8 1-132” as the molecule, how does the stoichiometry N [1] read?
A: 2

Q: `C(=NC1CCCCC1)=NC1CCCCC1` [DCCD] was tested. Which IC50 [2] did it give?
A: 9.9 ± 0.4 µM

B1: ferredoxin (Fd) isolated from Clostridium pasteurianum (natural protein)
chain: MAYKIADSCVSCGACASECPVNAISQGDSIFVIDADTCIDCGNCANVCPVGAPVQE
Q: With B1 as the molecule, how does the Km for Fd of the H2:Fd oxidoreductase reaction of purified Ech2 (0 to 90 μM Fd) [3] read?
A: 17.8 µM
